# Source: US20220411483A1 (Chugai, published 2022)
# Changes are numbered by the printed parent chain.
# B1: IL6R-BP552/IL6R-L (antibody, human IgG1, kappa, name in EU numbering)
# heavy: QVQLQESGPGLVKPSETLSLTCAVSGHSISHDHAWSWVRQPPGEGLEWIGFISYSGITNYNPSLQGRVTISRDNSKNTLYLQMNSLRAEDTAVYYCARSLARTTAMDYWGEGTLVTVSSASTKGPSVFPLAPSSKSTSGGTAALGCLVKDYFPEPVTVSWNSGALTSGVHTFPAVLQSSGLYSLSSVVTVPSSSLGTQTYICNVNHKPSNTKVDKKVEPKSCDKTHTCPPCPAPDLLGDDSVFLFPPKPKDTLMISRTPEVTCVVIDVAEEDGDVKFNWYVDGVEVHNAKTKPREEQDNSTYRVVSVLTVLHQDWLNGKEYKCKVSNKALPRPIEKTISKAKGQPREPQVYTLPPSRDELTKNQVSLTCLVKGFYPSDIAVEWESNGQPENNYKTTPPVLDSDGSFFLYSKLTVDKSRWQQGNVFSCSVMHEALHNHYTQESLSLSP
# light: not shown
# notes: human IgG1
# B2: IL6R-BP495/IL6R-L (antibody, human IgG1, kappa, name in EU numbering)
# heavy: B1 heavy with D235E, I266V, A269G, D274E
# light: not shown
# notes: human IgG1
# B3: IL6R-BP537/IL6R-L (antibody, human IgG1)
# heavy: B1 heavy with D235E, A269G, D274E, D298Y
# light: not shown
# notes: human IgG1
# B4: IL6R-BP507/IL6R-L (antibody, human IgG1, kappa, name in EU numbering)
# heavy: B1 heavy with D274P, D298Y
# light: not shown
# notes: human IgG1
# B5: IL6R-BP535/IL6R-L (antibody, human IgG1, kappa, name in EU numbering)
# heavy: B1 heavy with A269G, D274E, A329G, P398M
# light: not shown
# notes: human IgG1
# B6: IL6R-BP490/IL6R-L (antibody, human IgG1, kappa, name in EU numbering)
# heavy: B1 heavy with D235E, D274E, D298Y
# light: not shown
# notes: human IgG1
# B7: IL6R-BP268/IL6R-L (antibody, human IgG1, kappa, name in EU numbering)
# heavy: B1 heavy with I266V, A269S, D274E, R332A
# light: not shown
# notes: human IgG1
# B8: IL6R-BP493/IL6R-L (antibody, human IgG1, kappa, name in EU numbering)
# heavy: B1 heavy with D235E, D239G, D274E, R332A
# light: not shown
# notes: human IgG1
# B9: IL6R-BP501/IL6R-L (antibody, human IgG1, kappa, name in EU numbering)
# heavy: B1 heavy with D235E, D274E, D298Y, R332A
# light: not shown
# notes: human IgG1
# B10: IL6R-BP445/IL6R-L (antibody, human IgG1, kappa, name in EU numbering)
# heavy: B1 heavy with D274E, D298Y
# light: not shown
# notes: human IgG1
# B11: IL6R-BP561/IL6R-L (antibody, human IgG1, kappa, name in EU numbering)
# heavy: B1 heavy with I266V, A269S, E270D
# light: not shown
# notes: human IgG1
# B12: IL6R-BP557/IL6R-L (antibody, human IgG1, kappa, name in EU numbering)
# heavy: B1 heavy with D235E, I266V, A269G, E270D, D274E
# light: not shown
# notes: human IgG1
# B13: IL6R-BP534/IL6R-L (antibody, human IgG1, kappa, name in EU numbering)
# heavy: B1 heavy with A269S, D274E, P398L
# light: not shown
# notes: human IgG1
# B14: IL6R-BP555/IL6R-L (antibody, human IgG1, kappa, name in EU numbering)
# heavy: B1 heavy with D235E
# light: not shown
# notes: human IgG1
# B15: IL6R-BP531/IL6R-L (antibody, human IgG1, kappa, name in EU numbering)
# heavy: B1 heavy with A269G, D274E, P398M
# light: not shown
# notes: human IgG1
# B16: IL6R-BP532/IL6R-L (antibody, human IgG1, kappa, name in EU numbering)
# heavy: B1 heavy with A269S, D274E, P398M
# light: not shown
# notes: human IgG1
# B17: IL6R-BP480/IL6R-L (antibody, human IgG1, kappa, name in EU numbering)
# heavy: B1 heavy with I266V, V268L, A269S, E271D, D274E, D298Y, R332A
# light: not shown
# notes: human IgG1
# B18: IL6R-BP506/IL6R-L (antibody, human IgG1, kappa, name in EU numbering)
# heavy: B1 heavy with D274P
# light: not shown
# notes: human IgG1
# B19: IL6R-BP553/IL6R-L (antibody, human IgG1, kappa, name in EU numbering)
# heavy: B1 heavy with D298Y
# light: not shown
# notes: human IgG1
# B20: IL6R-BP249/IL6R-L (antibody, human IgG1, kappa, name in EU numbering)
# heavy: B1 heavy with L236Y, I266V, A269S, E270D, D274E
# light: not shown
# notes: human IgG1
# B21: IL6R-BP264/IL6R-L (antibody, human IgG1, kappa, name in EU numbering)
# heavy: B1 heavy with I266V, A269S, D274E
# light: not shown
# notes: human IgG1
# B22: IL6R-BP435/IL6R-L (antibody, human IgG1, kappa, name in EU numbering)
# heavy: B1 heavy with I266V, A269S, E270D, D274E, K328A, I334T
# light: not shown
# notes: human IgG1
# B23: IL6R-BP426/IL6R-L (antibody, human IgG1, kappa, name in EU numbering)
# heavy: B1 heavy with I266V, E271D, D274E, D298Y
# light: not shown
# notes: human IgG1
# B24: IL6R-G1dGSS/IL6R-L (antibody, human IgG1, kappa)
# heavy: QVQLQESGPGLVKPSETLSLTCAVSGHSISHDHAWSWVRQPPGEGLEWIGFISYSGITNYNPSLQGRVTISRDNSKNTLYLQMNSLRAEDTAVYYCARSLARTTAMDYWGEGTLVTVSSASTKGPSVFPLAPSSKSTSGGTAALGCLVKDYFPEPVTVSWNSGALTSGVHTFPAVLQSSGLYSLSSVVTVPSSSLGTQTYICNVNHKPSNTKVDKKVEPKSCDKTHTCPPCPAPELLGGPSVFLFPPKPKDTLMISRTPEVTCVVVDVSHEDPEVKFNWYVDGVEVHNAKTKPREEQYNSTYRVVSVLTVLHQDWLNGKEYKCKVSNKGLPSSIEKTISKAKGQPREPQVYTLPPSRDELTKNQVSLTCLVKGFYPSDIAVEWESNGQPENNYKTTPPVLDSDGSFFLYSKLTVDKSRWQQGNVFSCSVMHEALHNHYTQKSLSLSP
# light: not shown
# B25: IL6R-P556/IL6R-L (antibody, human IgG1, kappa)
# heavy: B1 heavy with I266V, A269S, E270D, D274E, D298Y, R332A, E441K
# light: not shown
# B26: IL6R-P555/IL6R-L (antibody, human IgG1, kappa)
# heavy: B24 heavy with G239D, P240D, H270D, P273G, G329A, S332A, S333P
# light: not shown
# B27: IL6R-P587/IL6R-L (antibody, human IgG1, kappa)
# heavy: B1 heavy with D239G, D274E, D298Y, R332A, E441K
# light: not shown
# Target: T1, FcγRIIb extracellular domain with C-terminal His tag (human, UniProt P31994 43-217)
# T1 construct: extracellular domain; also called FcgRIIb; not shown: His tag at the C terminus
# T1 sequence (looked up): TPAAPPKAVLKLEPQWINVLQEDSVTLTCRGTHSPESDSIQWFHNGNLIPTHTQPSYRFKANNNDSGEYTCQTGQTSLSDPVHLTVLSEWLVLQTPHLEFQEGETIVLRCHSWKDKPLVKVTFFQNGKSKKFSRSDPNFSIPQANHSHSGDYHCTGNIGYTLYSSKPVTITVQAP
# Assay: SPR, antibody captured, FcgR analyte
row,Kd [nM],Binder
1,2.6,B1
2,9.7,B2
3,6.9,B3
4,2.9,B4
5,4,B5
6,2.4,B6
7,92,B7
8,21,B8
9,25,B9
10,2.6,B10
11,18,B11
12,20,B12
13,3,B13
14,4.1,B14
15,3.8,B15
16,3.2,B16
17,200,B17
18,3.4,B18
19,3.1,B19

# Target: T2, FcγRIa extracellular domain with C-terminal His tag (human, UniProt P12314 16-292)
# T2 construct: also called FcgRIa; CD64; not shown: His tag at the C terminus
# Assay: SPR, antibody captured, FcgR analyte
# T2 sequence (P12314 16-292): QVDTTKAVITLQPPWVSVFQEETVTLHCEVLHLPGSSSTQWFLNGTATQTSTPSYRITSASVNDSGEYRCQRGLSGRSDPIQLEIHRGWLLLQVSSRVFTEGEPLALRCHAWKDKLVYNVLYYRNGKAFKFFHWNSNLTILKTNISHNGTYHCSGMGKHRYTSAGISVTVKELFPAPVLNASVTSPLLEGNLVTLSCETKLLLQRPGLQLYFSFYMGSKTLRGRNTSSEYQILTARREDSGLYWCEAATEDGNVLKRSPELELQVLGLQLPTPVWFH
row,Kd [nM],Binder
1,7,B20
2,3.2,B1
3,8.3,B2
4,29,B3
5,2.6,B4
6,11,B5
7,4.5,B6
8,4.5,B7
9,0.82,B8
10,2.1,B9
11,2,B10
12,7.4,B21
13,1,B22
14,9.4,B11
15,9.3,B13
16,9.4,B14
17,9.4,B15
18,12,B16
19,3.1,B18
20,3.4,B19
21,1,B23

# Target: T3, FcγRIIa R type extracellular domain with C-terminal His tag (human, UniProt P12318 34-217)
# T3 construct: extracellular domain; also called FcgRIIaR; not shown: His tag at the C terminus
# T3 sequence (looked up): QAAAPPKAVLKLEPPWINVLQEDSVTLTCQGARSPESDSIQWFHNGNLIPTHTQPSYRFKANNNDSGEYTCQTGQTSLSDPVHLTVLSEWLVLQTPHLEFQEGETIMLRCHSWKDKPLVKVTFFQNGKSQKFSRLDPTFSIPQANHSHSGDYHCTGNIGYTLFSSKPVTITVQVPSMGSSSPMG
# Assay: SPR, antibody captured, FcgR analyte
row,Kd [nM],Binder
1,97,B1
2,270,B3
3,100,B4
4,92,B5
5,110,B6
6,80,B10
7,350,B21
8,510,B11
9,850,B12
10,91,B13
11,160,B14
12,120,B15
13,94,B16
14,6300,B17
15,120,B18
16,86,B19

# Target: T4, human complement C1q (human, UniProt P02745 23-245; P02746 28-253; P02747 29-245)
# T4 construct: Bought (PROSPEC or Calbiochem); also called human C1q
# Assay: SPR, C1q bound per antibody captured on Protein L
# Method: The interaction between an antibody and human C1q was analyzed using Biacore T200 (GE Healthcare). HBS-EP+ (GE Healthcare) was used as the running buffer, and the measurement temperature was set at 25° C. Chips produced by immobilizing Protein L (ACTIGEN or BioVision) onto Series S sensor Chip CM4 (GE Healthcare) by amine coupling were used.
# The antibodies of interest were captured onto these sensor chips, and allowed to interact with human complement C1q (PROSPEC or Calbiochem) diluted in the running buffer. The amount of antibody binding was determined, and comparisons were made among the antibodies. However, since the amount of C1q bound depends on the amount of captured antibodies, corrected values obtained by dividing the amount of C1q bound by the amount of each antibody captured were compared. Furthermore, by reaction with 10 mM glycine-HCl, pH 1.5, the antibodies captured onto the sensor chips were washed, and the sensor chips were recycled and reused.
# T4 sequence (P02745 23-245 limits assumed, chain 1 of 3): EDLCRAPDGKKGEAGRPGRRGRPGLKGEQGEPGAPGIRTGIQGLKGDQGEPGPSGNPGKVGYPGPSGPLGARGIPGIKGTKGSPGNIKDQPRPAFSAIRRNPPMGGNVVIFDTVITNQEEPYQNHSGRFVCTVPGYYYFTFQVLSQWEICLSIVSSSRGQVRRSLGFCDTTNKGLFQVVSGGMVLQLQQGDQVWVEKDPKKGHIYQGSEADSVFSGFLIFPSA
# T4 sequence (P02746 28-253 limits assumed, chain 2 of 3): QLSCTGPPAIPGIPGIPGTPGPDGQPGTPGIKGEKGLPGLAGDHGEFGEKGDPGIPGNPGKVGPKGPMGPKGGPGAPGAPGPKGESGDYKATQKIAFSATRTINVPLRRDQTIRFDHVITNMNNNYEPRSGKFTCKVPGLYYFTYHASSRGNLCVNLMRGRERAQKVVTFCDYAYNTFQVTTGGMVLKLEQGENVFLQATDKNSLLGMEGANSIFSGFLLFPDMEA
# T4 sequence (P02747 29-245 limits assumed, chain 3 of 3): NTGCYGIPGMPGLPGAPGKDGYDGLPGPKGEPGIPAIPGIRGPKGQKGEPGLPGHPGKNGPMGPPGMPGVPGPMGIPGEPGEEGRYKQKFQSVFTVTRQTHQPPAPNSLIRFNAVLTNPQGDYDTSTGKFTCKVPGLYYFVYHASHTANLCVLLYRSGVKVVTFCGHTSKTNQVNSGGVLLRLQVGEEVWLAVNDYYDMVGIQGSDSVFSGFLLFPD
row,Amount of C1q-binding when that for G1d is Defined as 100 [G1d=100],Binder
1,15.2,B24
2,33.5,B25

# Target: T5, FcgRIIb (human, UniProt P31994 43-217)
# T5 construct: extracellular domain; also called FcγRIIb
# T5 sequence (looked up): T1 sequence (looked up)
# Assay: SPR, amount bound per captured antibody
row,Relative FcgRIIb-binding Activity [IL6R-G1d/IL6R-L=100],Binder
1,115,B24
2,294,B25
3,305,B26

# Target: T6, FcgRIIaR (human, UniProt P12318 34-217)
# T6 construct: extracellular domain; also called FcγRIIa R type; FcγRIIa (R type)
# T6 sequence (looked up): T3 sequence (looked up)
# Assay: SPR, amount bound per captured antibody
row,Relative FcgRIIaR-binding Activity [IL6R-G1d/IL6R-L=100],Binder
1,98.5,B24
2,81.7,B25
3,83.8,B26

# Target: T7, human FcγRIIIa V type extracellular domain with C-terminal His tag (human, UniProt P08637 17-208)
# T7 construct: extracellular domain; also called FcgRIIIaV
# Assay: SPR, KD of IL6R-G1d/IL6R-L divided by KD of variant
# T7 sequence (P08637 17-208 F176V): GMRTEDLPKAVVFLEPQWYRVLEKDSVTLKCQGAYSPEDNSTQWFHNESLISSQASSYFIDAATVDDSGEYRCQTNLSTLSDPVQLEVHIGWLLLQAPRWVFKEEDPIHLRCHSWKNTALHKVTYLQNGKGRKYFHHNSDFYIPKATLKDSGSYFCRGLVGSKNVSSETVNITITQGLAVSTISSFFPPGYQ
row,Relative FcgRIIIaV-binding Activity,Binder
1,0.012,B27

# Target: T8, human FcγRIIb extracellular domain with C-terminal His tag (human, UniProt P31994 43-217)
# T8 construct: extracellular domain; also called FcgRIIb
# T8 sequence (looked up): T1 sequence (looked up)
# Assay: as above
row,Relative FcgRIIb-binding Activity,Binder
1,75,B27

# Target: T9, human FcγRIIa H type extracellular domain with C-terminal His tag (human, UniProt P12318 34-217)
# T9 construct: extracellular domain; also called FcgRIIaH
# T9 sequence (looked up): T3 sequence (looked up) with R134H
# Assay: as above
row,Relative FcgRIIaH-binding Activity,Binder
1,0.044,B27

# Target: T10, human FcγRIIa R type extracellular domain with C-terminal His tag (human, UniProt P12318 34-217)
# T10 construct: extracellular domain; also called FcgRIIaR
# T10 sequence (looked up): T3 sequence (looked up)
# Assay: as above
row,Relative FcgRIIaR-binding Activity,Binder
1,0.92,B27

# Target: T11, human FcγRIa extracellular domain with C-terminal His tag (human, UniProt P12314 16-292)
# T11 construct: Whole entry named; also called FcgRIa
# Assay: as above
# T11 sequence (P12314 16-292): as the sequence (P12314 16-292) above
row,Relative FcgRIa-binding Activity,Binder
1,0.451,B27
